Measured values published in US20160271230A1 (UNIVERSITY HEALTH NETWORK, published 2016).
One block for each molecule: values may come before it. No end group written: not given here.

Assays:
[1] = molecular target: T1, Neogenin (full-length, 180 kDa) (chick, UniProt Q90610 1-1443); assay: cell-based or functional assay
T1 construct: Endogenous Neogenin of chick brain membranes, retinal axons and tecta, or Neogenin transfected into HEK293 cells; in Western blots it stood denatured
T1 sequence: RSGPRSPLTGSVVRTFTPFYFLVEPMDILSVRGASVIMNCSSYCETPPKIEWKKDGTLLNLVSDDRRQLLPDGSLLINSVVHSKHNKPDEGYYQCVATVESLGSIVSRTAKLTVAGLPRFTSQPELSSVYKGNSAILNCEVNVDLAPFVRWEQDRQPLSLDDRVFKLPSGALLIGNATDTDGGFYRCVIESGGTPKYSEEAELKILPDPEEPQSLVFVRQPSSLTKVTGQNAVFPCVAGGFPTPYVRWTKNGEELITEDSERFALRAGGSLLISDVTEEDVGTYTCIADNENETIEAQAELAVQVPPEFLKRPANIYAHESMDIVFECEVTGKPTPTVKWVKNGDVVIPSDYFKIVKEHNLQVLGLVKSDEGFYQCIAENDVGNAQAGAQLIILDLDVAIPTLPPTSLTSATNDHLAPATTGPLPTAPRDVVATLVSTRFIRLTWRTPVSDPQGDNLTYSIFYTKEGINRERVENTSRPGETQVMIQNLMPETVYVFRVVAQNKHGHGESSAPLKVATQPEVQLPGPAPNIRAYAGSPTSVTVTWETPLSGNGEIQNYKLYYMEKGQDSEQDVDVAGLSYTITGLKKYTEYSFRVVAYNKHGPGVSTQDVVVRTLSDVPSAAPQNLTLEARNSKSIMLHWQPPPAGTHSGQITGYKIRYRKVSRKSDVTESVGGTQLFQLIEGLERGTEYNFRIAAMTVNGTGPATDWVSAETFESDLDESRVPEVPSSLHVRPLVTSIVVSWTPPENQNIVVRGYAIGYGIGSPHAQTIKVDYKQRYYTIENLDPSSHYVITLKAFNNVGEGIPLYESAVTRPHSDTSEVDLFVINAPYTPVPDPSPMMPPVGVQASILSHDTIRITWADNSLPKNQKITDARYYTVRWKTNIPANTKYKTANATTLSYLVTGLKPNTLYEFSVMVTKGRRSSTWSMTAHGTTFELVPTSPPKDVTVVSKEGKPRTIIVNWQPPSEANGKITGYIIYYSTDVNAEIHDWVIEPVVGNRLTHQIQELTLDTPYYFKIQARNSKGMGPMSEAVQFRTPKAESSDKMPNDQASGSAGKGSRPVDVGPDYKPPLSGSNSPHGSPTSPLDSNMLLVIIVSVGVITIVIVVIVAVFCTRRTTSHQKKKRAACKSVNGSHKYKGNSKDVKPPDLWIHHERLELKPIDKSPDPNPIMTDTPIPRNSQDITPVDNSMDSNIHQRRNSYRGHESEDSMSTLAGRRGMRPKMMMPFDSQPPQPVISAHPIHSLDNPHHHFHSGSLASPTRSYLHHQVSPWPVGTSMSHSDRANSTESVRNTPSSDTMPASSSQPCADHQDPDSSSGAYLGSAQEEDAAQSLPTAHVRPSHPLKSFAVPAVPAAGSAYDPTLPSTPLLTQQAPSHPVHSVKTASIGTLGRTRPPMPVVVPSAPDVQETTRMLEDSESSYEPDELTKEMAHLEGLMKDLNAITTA

[2] = molecular target: T2, His-tagged 4Ig-domain of Neogenin (Gallus gallus, UniProt Q90610 1-383); assay: plate binding assay, AP-tagged fragments on coated His-tagged Neogenin proteins (FIG. 17C)
T2 construct: Secreted from transfected cells, purified on Ni-NTA; also called His-4Ig; Neogenin-4Ig; not shown: 6-His tag at the N-terminus; myc and 6-His tags of the pSectag 2B vector at the C-terminus
T2 sequence: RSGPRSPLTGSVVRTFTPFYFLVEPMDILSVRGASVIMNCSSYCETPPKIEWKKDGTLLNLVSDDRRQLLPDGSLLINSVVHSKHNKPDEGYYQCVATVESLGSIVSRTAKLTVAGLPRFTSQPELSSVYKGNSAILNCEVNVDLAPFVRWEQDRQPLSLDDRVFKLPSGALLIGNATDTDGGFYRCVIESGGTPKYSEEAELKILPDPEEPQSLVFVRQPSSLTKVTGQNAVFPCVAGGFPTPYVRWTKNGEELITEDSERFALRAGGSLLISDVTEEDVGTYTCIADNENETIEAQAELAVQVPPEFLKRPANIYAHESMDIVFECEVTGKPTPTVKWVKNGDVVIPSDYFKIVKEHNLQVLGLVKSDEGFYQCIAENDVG
Experimental: (§1) Using a 96-well microtiter plate (Corning Incorporated), wells were coated with 100 μl (10 μg/mL) of Poly-L-Lysine at 4° C. overnight. Wells were then washed three times with 100 μl of PBST (+0.02% Tween). 50 μl (2.5 μg/mL) of His-tagged: Full-length Neogenin; 4 Ig Neogenin; and FNIII Neogenin were coated onto each well for 1 hour at 37° C. Following three washes of 100 μl PBST, each well was then blocked with 300 μl of 3% BSA in PBST for 1 hour at 37° C. 50 μl (1.0 μg/mL) AP-tagged: N-RGMa (28-73); N-RGMa (28-54); N-RGMa (40-62); N-RGMa (54-73); N-RGMa (54-62) in 1% BSA+PBST was then added to each well and incubated at 37° C. for 1 hour. Each well was washed thoroughly three times with 100 μl PBST followed by subsequent equilibration of each well with Alkaline Phosphatase (AP) developing buffer (100 mM NaHCO₃, 1 mM MgCl₂). The reaction was developed using AP developing buffer supplemented with, p-nitrophenyl phosphate (pNPP)(Sigma-Aldrich) and allowed to develop until color development. The reaction was stopped with the addition of 50 μl (0.1M) NaOH. The absorbance of each reaction was measured using a microplate autoreader (BIO-TEK Instruments Inc.) at […] wavelength. […]

[3] = molecular target: T3, 6FNIII-domain of Neogenin fused to alkaline phosphatase (Gallus gallus, UniProt Q90610 429-1036); assay: ELISA with AP fusions of Neogenin domains
T3 construct: also called 6FNIII-AP; fibronectin domain; not shown: alkaline phosphatase (AP)
T3 sequence: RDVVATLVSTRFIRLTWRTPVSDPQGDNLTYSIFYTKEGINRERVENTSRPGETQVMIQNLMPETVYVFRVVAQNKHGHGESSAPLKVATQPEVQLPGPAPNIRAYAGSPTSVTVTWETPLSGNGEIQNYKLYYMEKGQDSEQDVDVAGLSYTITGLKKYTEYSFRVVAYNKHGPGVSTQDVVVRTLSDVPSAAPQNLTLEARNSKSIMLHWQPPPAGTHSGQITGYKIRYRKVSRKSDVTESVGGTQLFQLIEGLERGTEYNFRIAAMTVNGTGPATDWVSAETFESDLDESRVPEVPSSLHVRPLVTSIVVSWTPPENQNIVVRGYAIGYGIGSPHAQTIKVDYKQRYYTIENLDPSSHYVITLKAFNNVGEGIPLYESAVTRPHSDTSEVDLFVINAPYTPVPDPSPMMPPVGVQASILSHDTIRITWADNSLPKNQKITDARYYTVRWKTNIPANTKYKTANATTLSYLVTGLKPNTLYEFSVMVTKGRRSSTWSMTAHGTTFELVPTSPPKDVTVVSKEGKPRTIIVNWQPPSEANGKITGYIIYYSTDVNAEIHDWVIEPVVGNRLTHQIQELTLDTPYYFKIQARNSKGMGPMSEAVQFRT

[4] = molecular target: T4, His-tagged 6FNIII-domain of Neogenin (Gallus gallus, UniProt Q90610 429-1036); assay: complementary plate assay, RGMa peptides fused with AP on coated Neogenin domains (FIG. 9)
T4 construct: also called His-6FNIII; His-FNIII; not shown: His tag
T4 sequence: T3 sequence
Experimental: (A) Different RGMa-AP proteins were incubated on wells coated with the 4Ig 6FNIII or BSA. […] Data were average±SEM (n=3 independent experiments), *p<0.005. (B) Quantification of a binding assay where 4Ig-AP and 6FNIII-AP proteins were assayed on wells coated with proteins from different RGMa regions. […] C-RGMa proteins and full length RGMa only bound 6FNIII. Data were average±SEM (n=3 independent experiments), *p<0.005. […] Quantification of a binding assay where N-RGMa-AP was assayed on wells coated with proteins DCC-4Ig and Neogenin-4Ig. In this experiment Neogenin-4Ig but not DCC-4Ig interacted with N-Raft-AP. Data were average±SEM (n=4 independent experiments), *p<0.005. (D) Cis-interaction between the 4Ig domain of Neogenin and N-Raft is required for localization of Neogenin in lipid rafts. HEK-293 cells were transfected with Neogenin and RGMa constructs. BMP2 (100 nM) was added to the medium 1 hour before cells were collected. Western blotting was performed following lipid raft fractionation. Flotillin was used as a marker for lipid raft fractions, whereas the transferrin receptor (TfR) was used as a marker for heavy membrane-fractions. Every experiment was repeated twice. […] In the first set of experiments, cells were only transfected with Neogenin. […]

[5] = molecular target: T5, 4Ig-domain of Neogenin fused to alkaline phosphatase (Gallus gallus, UniProt Q90610 1-383); assay: ELISA with AP fusions of Neogenin domains
T5 construct: also called 4Ig-AP; not shown: alkaline phosphatase (AP)
T5 sequence: T2 sequence

[6] = molecular target: T3, 6FNIII-domain of Neogenin fused to …; assay: binding assay, 4Ig-AP and 6FNIII-AP on wells coated with RGMa proteins (FIG. 9B)
[7] = molecular target: T1, Neogenin (full-length, 180 kDa); assay: told in a figure legend; assay not named there (peptide also used on beads in the pull-down of FIG. 2B)
[8] = molecular target: T2, His-tagged 4Ig-domain of Neogenin; assay: plate binding assay, AP-tagged fragment on coated His-tagged 4Ig-domain (FIG. 17C)
Experimental: as §1

intensity correlation quotient (co-localization in growth cones, immunofluorescence) [1]: 0.32
Molecule: RGMa on the cell membrane (from UniProt Q8JG54 150-404) (ligand)

binding result [2]: binds
B1: N-RGMa (54-73aa), AP-tagged (peptide)
chain: TPEFCTALRAYAHCTRRTAR
modifications: cysteine pairing not given here; also: alkaline phosphatase tag, sequence and position not given here
notes: also called N-RGMa (55-73aa); not shown: alkaline phosphatase tag of the Psectag2B-AP plasmid

binding result [3]: no binding
B2: N-Raft peptide (amino acids 28-73 of RGMa), His-tagged (peptide)
peptide: SPCKILKCNSEFWAATSGSHHLGAEETPEFCTALRAYAHCTRRTAR
notes: also called N-RGMa^28-73; N-RGMa28-73; not shown: 6-His tag at the N-terminus

binding result [4]: no binding
B3: N-Raft fused with alkaline phosphatase (peptide)
chain: B2 peptide
modifications: cysteine pairing not given here; also: alkaline phosphatase tag, sequence and position not given here
notes: also called N-Raft-AP; N-RGMa-AP; not shown: alkaline phosphatase tag of the Psectag2B-AP plasmid

binding result [5]: no binding | binding result [6]: binds
B4: N-inh peptide (amino acids 77-113 of RGMa), His-tagged (peptide)
peptide: GDLAYHSAVHGIDDLMVQHNCSKDGPTSQPRLRTLPP
notes: not shown: 6-His tag at the N-terminus; myc tag and 6-His tag at the C-terminus

binding result [7]: no binding
Molecule: GAEETPEFCTALRAYAHCTRRTARTCRGDLAYHSAVHGIDDLMVQHNCSK (not shown: 6-His tag at the N-terminus) [N-RGMa^50-99 control peptide (amino acid residues 50-99 of RGMa)]

binding result [2]: binds
B5: N-RGMa (40-62aa), AP-tagged (peptide)
chain: WAATSGSHHLGAEETPEFCTALR
modifications: also: alkaline phosphatase tag, sequence and position not given here
notes: not shown: alkaline phosphatase tag of the Psectag2B-AP plasmid

binding result [8]: no binding (tested: 1.0 µg/mL)
B6: N-RGMa (54-62aa), AP-tagged (peptide)
chain: TPEFCTALR
modifications: also: alkaline phosphatase tag, sequence and position not given here
notes: as for B5

binding result [8]: no binding (tested: 1.0 µg/mL)
B7: N-RGMa (28-54aa), AP-tagged (peptide)
chain: SPCKILKCNSEFWAATSGSHHLGAEET
modifications: cysteine pairing not given here; also: alkaline phosphatase tag, sequence and position not given here
notes: as for B5
